Tests used:
[1] = system: Human pancreatic cancer MIAPaCa-2 cells; experiment: Complement-mediated cytotoxicity (CDC) with normal human serum, PI staining; format: cell-based; details: antibody 30 μg/ml; NHS 1:10; 2 hours; FIG. 13
Protocol: Methodology used: Cells seeded in 24-well dishes were grown overnight at 37° C. in a humidified atmosphere supplied with 5% CO2-95% air mixture. The following day the cells were thoroughly washed with ice-cold PBS and incubated with HDM2-specific mAb NMC-103 diluted in culture medium containing 1% BSA to a final antibody concentration of 30 μg/ml. After 30 min, NHS was added to the cells at a final concentration of 1:10 in the culture medium with 1%) BSA together with 1% propidium iodide (PI) solution. Cells were then incubated with NHS for 2 hours and images were taken using EVOS FL fluorescent microscope (Life Technologies).

[2] = system: mouse pancreatic cancer Panc-2 cells (subcutaneous tumors); experiment: Panc-2 syngeneic mouse model of pancreatic cancer; format: in vivo, mouse (C57BL/6)
Protocol: Methodology used (Syngeneic Mouse Models of lung, colon and pancreatic cancer): To investigate the anti-tumor effects of HDM2-specific antibodies on lung, colon and pancreatic tumors in vivo, three well-known syngeneic mouse models of lung, colon and pancreatic cancer were used (Sharma et al, 1999, J. Immunol. 163 (9):5020-5028; McIntyre, 2015, Bioassays 37(8):909-920; Li, et al, 2015, Sci. Rep. 5:7856). Subcutaneous tumors were prepared by implanting either mouse Lewis Lung cancer LL/2 cells (2.5×10^5 cells/mouse), mouse colon cancer MC-38 cells (5×10^5 cells/mouse) or mouse pancreatic cancer Panc-2 cells (2×10^6 cells/mouse) in the right flanks of 8-week-old female C57BL/6 mice (n=6-7). The mice were returned to their respective cages after tumor implantation. From day 7 after tumor implantation, the tumor volumes were measured 2 times/week with a digital caliper. In the case of MC-38 and Panc-2 study, treatment started when the tumors reached an average of 70-80 mm^3. In the case of LL/2 study, tumor cell inoculation and treatment were initiated simultaneously. Mice were micro-chipped and registered following tumor implantation. […] All tumors were injected subcutaneously and all treatments were performed by intraperitoneal injection. Any mouse displaying prolonged adverse clinical signs, or with body weight loss exceeding 15% relative to body weight at day 0, was euthanized.
The efficacy of FIDM2-specific antibody treatment and standard of care chemotherapy was further compared. […] As shown in the tumor volume graph of FIG. 19, when tumors in mice reached approximately 70 mm^3, mice were divided into 4 groups (n=6) that received: A) isotype control mouse IgG1 (2 mg/kg); B) low dose Gemcitabine (25 mg/kg) and nab-Paclitaxel (5 mg/kg); C) NMC-103 (2 mg/kg); or D) a combination of low dose Gemcitabine (25 mg/kg), nab-Paclitaxel (5 mg/kg) and NMC-103 (2 mg/kg). All drugs were injected intraperitoneally 2 times a week for 3 weeks. After receiving the 6th dose on day 19, treatments were stopped for 2 weeks.
The anti-tumor efficacy of NMC-103 and of its combination with pancreatic cancer standard of care treatment Gemcitabine (G) and nab-Paclitaxel (nP) was further evaluated in vivo utilizing the Panc-2 syngeneic mouse model of pancreatic cancer discussed above.
All drugs were injected intraperitoneally 2 times a week for 4 weeks.
The mice were then randomly divided in 2 groups that received a single dose of: A) isotype control mouse IgG1 (10 mg/kg) or B) NMC-103 (10 mg/kg).

B1: NMC-103: mouse monoclonal antibody, IgG1 isotype, binds NMC-P1 (SEQ ID NO:1); VH SEQ ID NO:36, VL SEQ ID NO:37 (antibody, V domains shown)
VH: EVQLQESGGGLVQPGGSLRLSCTTSGFTFTHYYMSWVRQPPGKALEWLGFIRNKAKGYTAEYSASVKGRFTISRDNSQSILYLQMNTLRPEDSATYYCARDIGDNWGQGTLVTVSS
VL: DIVMTQAAFSNPVTLGTSASISCRSSKNLLHSNGITYLYWYLQRPGQSPQLLISRVSNLASGVPNRFSGSESGTDFTLRISRVEAEDVGVYFCAQLLELPYTFGGGTKLEIK
modifications: mAb NMC-103 Heavy Chain Variable Region; mAb NMC-103 Light Chain Variable Region
complement-mediated cytotoxicity (nuclear uptake of Propidium Iodide) [1]: triggered complement-mediated cytotoxicity | tumor size 6 days after a single i.p. injection ([2]; 10 mg/kg single dose after 19 days of Gemcitabine 25 mg/kg + nab-Paclitaxel 5 mg/kg, from 438 mm^3, FIG. 30): 233 mm^3 | Kaplan Meier survival analysis versus chemotherapy alone or control antibody ([2]; conditions of FIG. 27, FIG. 28): significant survival benefit | average tumor size / measurement ([2]; day 34, NMC-103 10 mg/kg, Gemcitabine 25 mg/kg, nab-Paclitaxel 5 mg/kg i.p. 2 times a week for 4 weeks, surviving mice, NMC-103 group values ascribed to scars and inflammation, FIG. 27): 230 mm^3 | average tumor volume ([2]; day 35, i.p. 2 times a week for 3 weeks (6th dose day 19), then 2 weeks off, antibody 2 mg/kg, Gemcitabine 25 mg/kg, nab-Paclitaxel 5 mg/kg, start approx 70 mm^3, n=6, FIG. 19): 1523 mm^3 | tumor growth during 4 further weeks without drug treatment (to day 62) ([2]; groups C (n=8) and D (n=7) of FIG. 27): no sign of tumor growth beyond the initial scar size | tumor 10 days after re-challenge with Panc-2 cells ([2]; re-challenge at day 62, 2×10^6 cells/mouse s.c. left dorsal flank, previously treated mice of FIG. 27, FIG. 29): no tumor was observed
